Laboratory results published in publication PMC7755780, “Tetrachloroethene respiration in Sulfurospirillum species is regulated by a two‐component system as unraveled by comparative genomics, transcriptomics, and regulator binding studies”.

T1: RR2 (PceP), OmpR-family response regulator of TCS2 (Sulfurospirillum halorespirans (DSM 13726?)) (UniProt A0A1D7TJV3)
T1 sequence: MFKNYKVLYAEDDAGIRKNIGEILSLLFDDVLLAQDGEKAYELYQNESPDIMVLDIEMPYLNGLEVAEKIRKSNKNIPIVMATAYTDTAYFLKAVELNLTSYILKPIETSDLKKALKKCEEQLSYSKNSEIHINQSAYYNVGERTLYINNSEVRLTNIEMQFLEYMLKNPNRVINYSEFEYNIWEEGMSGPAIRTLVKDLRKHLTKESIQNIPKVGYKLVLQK

T2: RR2 (PceP), OmpR-family response regulator of TCS2 (Sulfurospirillum halorespirans, UniProt A0A1D7TJV3 1-223)
T2 sequence: T1 sequence

B1: ppceAB minimum 70-bp fragment (dsDNA)
DNA 1: ATTATTTTAAAATTAAAATCTATATCTTTCCTATAACAAAGCTATAACTTTTGTATATCATTCTTAAAAT
DNA 2: ATTTTAAGAATGATATACAAAAGTTATAGCTTTGTTATAGGAAAGATATAGATTTTAATTTTAAAATAAT

Target: T1, RR2 (PceP), OmpR-family response regulator of TCS2 (Sulfurospirillum halorespirans (DSM 13726?))
Experiment: EMSA
Details: EMSA: 10 mM HEPES pH 7.6, 2 mM MgCl2, 200 mM KCl, 0.1 mM EDTA, 5 mM DTT, 10% glycerol, 50 ug/ul Ficoll 70, 250 ng poly(dI/dC), 2.5 pmol DNA in 15 ul, room …

Molecule | binding
ATTGTCTGATATATTGACAAAATCTTTATAAAATCTCCAAAAATATAAAAAAAGAAAAGTATTTACTTATTACTTCGTAAATATTATTAACTTTCATTATTTTAAAATTAAAATCTATATCTTTCCTATAACAAAGCTATAACTTTTGTATATCATTCTTAAAATGTGAAATTAATTCATAAACACATTAAAAAATAAATAACTGTACTTGGGGTTATTTATAAAAGGTTACAAGAAGGTTTGAATACCACTGTGTAAGTTGTTACTCTTGGTATTTTTTAAGGAGGAAGTATG (double strand) [ppceAB promoter] | binds
CATATTCTATCCTTATTTTTAAAATATTTAATTATTATAAATGTAAGTATAGAAAATAATTATAGGTTGTTTGTAGATAATAATAATTTTTCTACTAATTCTTTAATCATTAAATAATATTCAGTAGTATTTCTATCTATCTCGATGCTCAAAAAAACACCATCAATTCTATCAATATCTACATCTATAACTTTTTCTTAA (double strand) [p1494 (ahpD-like gene promoter)] | binds more weakly
CATGTGTGAACCTATCCTATAGTTTATAACTATGATTCTATCAGATATTTTGTTAAAAATTAACTTAAAAGAGTAAAAATTATCTATTTAATAGTTACCCTATATTTCACCTATAAGTTACCTATAAATATTCATAAAATTCAAGGTTCTCTCTTTATTGCACACAAAGTTACTACAAGTTTTATGTACT (double strand) [pTCS2/SHALO_1504 intergenic region (pTCS2)] | binds
CATTAAATTCTTAATTACATCATTATATCACAAAAAAGGCAAGGAATGATAAAAAAGTTTTATCATCTAAGTGAAGTATTAGACAATATCATATAATTAAATAGTTAAAGTAGTATAAATAAACCGTAAAATATGCAAATAACTGCATTTATAAGCTAATATTAATAAAATATACAA (double strand) [p1552 promoter (phage CI repressor superfamily gene)] | no binding
CTGCATAGAGTATTGTATAAGAAGCGAGCATGTTAAATCCCTGAAATTTTATGAATAATGTACGTATTATAAAAAAAGAAATATAGAACTTGTAGATAAAAAATATTTTCCTTCTATTTTAGTTATACAACGGTTGCATAAGTTTTAAATACAATTTTCATAATAAGTCAGATGTTAAATGGTTGTACTTGGGATCATTTAATTAAAGGTTACAAGAAGGTTTAAAATCATTATCATGATTGTATGGTAGATGATTTTTTAAGGAGTAAATATG (double strand) [prdhAB promoter] | binds more weakly
TCTATCAGATATTTTGTTAAAAATTAACTTAAAAGAGTAAAAATTATCTATTTAATAGTTACCCTATATTTCACCTATAAGTTAC (double strand) [pTCS2/SHALO_1504 f9 (lacks repeat closest to SHALO_1504 TSS)] | no binding
TTCACCTATAAGTTACCTATAAATATTCATAAAATTCAAGGTTCTCTCTTTATTGCACACAAAGTTACTACAAGTTTTATGTACT (double strand) [pTCS2/SHALO_1504 f2 (first CCTATA incomplete)] | binds more weakly

Target: T2, RR2 (PceP), OmpR-family response …
Experiment: EMSA; minimum binding fragment; 30 or 60 pmol RR2; EMSA: 10 mM HEPES pH 7.6, 2 mM MgCl2, 200 mM KCl, 0.1 mM EDTA, 5 mM DTT, 10% glycerol, 50 ug/ul Ficoll 70, 250 ng poly(dI/dC), 2.5 pmol DNA in 15 ul, room temperature 20 min; gel with 30% triethylene glycol in 1x TAE
Details: protein: recombinant; tags: Twin-Strep; chain copies: 2; label: 6-FAM; blunt

Molecule | binding result
B1 | binds
